# Source: patent US12371675B2, “Process and microorganism for synthesis of adipic acid from carboxylic acids” (THE GOVERNING COUNCIL OF THE UNIVERSITY OF TORONTO, priority 2015, dated 2025)
# Experiments:
# [1] = substrate: O=C(O)/C=C/c1ccccc1; experiment: Kinetics of purified EREDCA, NADH oxidation at 340 nm, anaerobic; type: biochemical, Clostridium acetobutylicum DSM 1731; conditions: other: trans-cinnamic acid, pH 7.0, 30° C., anaerobic
# Procedure: (§1) The C═C reducing activity of EREDs was examined. Enzyme activity of purified EREDs was measured spectrophotometrically in 96-well plates by following incubation for 3-5 min at 30° C. in the anaerobic chamber as described in M. Buhler, H. Simon, Hoppe-Seyler's Zeitschrift fur Physiologische Chemie 1982, 363, 609-625. Buffers and reagents were degassed and sparged with Ar. Reaction mixture contained potassium phosphate (100 mM and pH 7.0), NADH (0.5 mM), indicated substrates, and proteins (0.1-50 μg) in a final volume of 200 μL. Enzyme reactions were monitored by following the decrease in absorbance at 340 nm (ε340 nm=6,220/M·cm) due to oxidation of NADH to NAD+.
# (§2) For in vitro biochemical characterization, enzyme activities of purified EREDs were measured with 2-hexenedioic acid, cis-cis-muconic acid, trans-trans muconic acid, trans-cinnamic acid, trans-2-methyl-2-butenoic acid, trans-2-butenoic acid, acrolein, 2-cyclohexen-1-one, and 3-methyl-2-cyclohexenone. […] [Feng, J. et al. Discovery and Characterization of BlsE, a Radical S-Adenosyl-L-methionine Decarboxylase Involved in the Blasticidin S Biosynthetic Pathway. PLoS ONE 8 (2013)].
# (§3) To increase the dissolved substrate concentration, 2-hexenedioic acid was dissolved in a reaction mixture containing […] (final concentration) isopropanol, and kinetic constants of EREDBC and EREDCA were determined.
# [2] = substrate: O=C(O)C=CCCC(=O)O; experiment: as above; type: biochemical, Clostridium acetobutylicum DSM 1731; conditions: other: 2-hexenedioic acid in 0.25 mM isopropanol, 2.5 to 35 mM, sigmoidal kinetics, pH 7.0, 30.0 °C
# Procedure: as §1, §2, §3
protein,measurement,setting,value
"Clostridium acetobutylicum DSM 1731 2-enoate reductase EREDCA, SEQ ID NO: 2 (Clostridium acetobutylicum ATCC 824) (protein) MNKYKKLFEPIKIGKCEIKNRFALAPMGPLGLADSEGGFNQRGIDYYTERAKGGTGLIITGVTFVDNEVEEHGMPNCPCPTHNPVQFVRTGREMTERIHAYNSKVFLQMSGGFGRVTIPTNLGEFPPVAPSPIQHRWLDKTCRELTVDEIKSIVKKFGEGAFNAKRAGFDGVQIHAVHEGYLIDQFAISLFNHRTDEYGGSLENRLRFAREIVEEIKNRCGEDFPVTLRYSPKSFIKDLRDGALPGEEFVEKGRDLDEGVEAAKLLVSYGYDALDTDVGSYDSWWWSHPPMYQEKGLYRKYAKLMKDTVDVPVICAGRMDDPDMALEAVENGTCDVISLGRPLLADPDYVNKLRSNKCKSIRPCISCQEGCMGRVQHYSMLNCAVNPQACKERANSLTPIIKSKKVLIVGGGVAGCEAARVLALRGHEPVLYEKSNRLGGNLIPGGAPSFKEDDIALADWYTNTLKELNVEVNLNSEVTKEQILNSKFDTVIVATGSTPKVFPLGDDEKVFTAAEVLLGQKDPGETTVVVGGGLVGCELALDLAKKGKKVTIVEALNKILALNGPLCSANSEMLQKLIPFNGIDVKANSKVKGYKNGLLKMETENGIEELPCDSVILSVGYKEENSLYKELEFEIPEIYLLGDARKVSNIMYGIWDAFEVANHI",Km,[1],0.17 mM
same,kcat,[1],5.2 s⁻¹
same,Km,[2],20.47 mM
